Measured values as given in US20200095296A1 (TRUSTEES OF COLUMBIA UNIVERSITY IN THE CITY OF NEW YORK, published 2020).
Residue numbers refer to the chain shown, from its start. Where no end group is shown, it is not given here. [ ]: non-standard residue; d: D form. pY = N[C@@H](Cc1ccc(OP(=O)(O)O)cc1)C(=O)O

How the values were obtained:
[1] = target: T1, HLA DPB1*04:02 (human); assay: competition with radiolabeled peptide, purified HLA
T1 construct: purified HLA class II molecule; only the beta-chain allele is printed

[2] = target: T2, HLA DPB1*05:01 (human); assay: as above
T2 construct: purified HLA class II molecule; only the beta-chain allele is printed

[3] = target: T3, HLA DPB1*04:01 (human); assay: as above
T3 chain 1: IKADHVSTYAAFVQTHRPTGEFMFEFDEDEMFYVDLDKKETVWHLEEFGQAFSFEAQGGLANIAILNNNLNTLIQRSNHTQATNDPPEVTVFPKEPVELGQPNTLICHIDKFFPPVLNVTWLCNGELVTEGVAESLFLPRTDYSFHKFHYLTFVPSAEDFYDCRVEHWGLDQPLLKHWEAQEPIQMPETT
T3 chain 2: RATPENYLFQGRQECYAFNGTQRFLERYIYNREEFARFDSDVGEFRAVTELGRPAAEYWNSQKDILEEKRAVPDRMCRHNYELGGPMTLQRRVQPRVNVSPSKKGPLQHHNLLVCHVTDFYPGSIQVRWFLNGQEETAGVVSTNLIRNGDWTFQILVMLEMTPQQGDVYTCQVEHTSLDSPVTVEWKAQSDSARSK

[4] = target: T4, HLA DPB1*02:01 (human); assay: as above
T4 chain 1: T3 chain 1
T4 chain 2: T3 chain 2 with A36V, A55D, A56E, K69E

[5] = target: T5, HLA A*11:01 (human); assay: competition with radiolabeled peptide, purified HLA A*11:01
T5 construct: purified HLA A*11:01 molecules

[6] = target: T6, HLA DRB3*01:01 (human); assay: competition with radiolabeled peptide, purified HLA
T6 construct: purified HLA class II molecule; only the beta-chain allele is printed

[7] = target: T7, HLA DRB1*04:01 (human); assay: as above
T7 construct: purified HLA class II molecule; only the beta-chain allele is printed

[8] = target: T8, HLA DQB1*04:02 (human); assay: as above
T8 construct: purified HLA class II molecule; only the beta-chain allele is printed

[9] = target: T9, HLA DQB1*05:01 (human); assay: as above
T9 construct: purified HLA class II molecule; only the beta-chain allele is printed

B1: alpha-syn peptide aa32KTKEGVLYVGSKTKEaa46 phosphorylated at Y39 (peptide)
peptide: KTKEGVL[pY]VGSKTKE
notes: synthetic post-translationally modified 15-mer; also called Phospho-Y
IC50 [1]: 1600 nM
IC50 [2]: 777 nM
IC50 [3]: 937 nM
IC50 [4]: 620 nM

VLYVGSKTK (synthetic 9-mer; also called the 9 mer) [alpha-syn peptide aa37VLYVGSKTKaa45]
IC50 [5]: 161 nM

DNEAYEMPSEEGYQD (synthetic 15-mer of alpha-synuclein) [alpha-syn peptide aa121DNEAYEMPSEEGYQDaa135]
IC50 [6]: 787 nM
IC50 [7]: 76 nM
IC50 [8]: 51 nM
IC50 [9]: 7 nM
